# In article PMC5704011:
# pKd: −log10 of the molar value. Where two headings read alike, the source gives them in different places.
# Legend:
# PDGFRα (Homo sapiens) [1] = target: PDGFRα (Homo sapiens) (UniProt P16234); conditions: cited from earlier work
# Target sequence in this assay (P16234 24-528): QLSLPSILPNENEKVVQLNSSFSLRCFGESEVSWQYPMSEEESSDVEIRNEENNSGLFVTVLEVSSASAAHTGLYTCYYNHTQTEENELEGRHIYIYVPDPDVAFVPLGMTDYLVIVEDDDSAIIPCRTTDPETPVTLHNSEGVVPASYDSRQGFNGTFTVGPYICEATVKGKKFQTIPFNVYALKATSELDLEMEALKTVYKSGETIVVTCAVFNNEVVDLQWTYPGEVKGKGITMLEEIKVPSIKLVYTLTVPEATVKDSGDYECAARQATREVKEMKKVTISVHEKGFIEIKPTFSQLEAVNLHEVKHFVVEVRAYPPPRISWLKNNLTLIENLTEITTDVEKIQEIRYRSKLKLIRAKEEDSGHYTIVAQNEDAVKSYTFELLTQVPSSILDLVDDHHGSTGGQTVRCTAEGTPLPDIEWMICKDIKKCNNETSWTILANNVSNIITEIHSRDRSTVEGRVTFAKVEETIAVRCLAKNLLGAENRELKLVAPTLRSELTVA
# PDGFRα (Homo sapiens) [2] = target: PDGFRα (Homo sapiens) (UniProt P16234); conditions: cited from earlier work; remark: listed apart in the source
# Target sequence in this assay (P16234 24-528): as above
# VEGFR2 (Homo sapiens) [3] = target: VEGFR2 (Homo sapiens) (UniProt P35968); experiment: SPR; conditions: cited from earlier work
# VEGFR1 (Homo sapiens) [4] = target: VEGFR1 (Homo sapiens) (UniProt P17948); experiment: SPR; conditions: cited from earlier work
# PDGFRα (Homo sapiens) [5] = target: PDGFRα (Homo sapiens) (UniProt P16234); experiment: SPR; BIAcore 3000, 25 °C, CM5 chip; receptor immobilised by amine coupling (~200-500 R.U.); ligand injected at 10, 20 and 40 nM, 30 uL/min, 10 min dissociation; HBS-EP pH 7.4 (10 mM HEPES, 3 mM EDTA, 150 mM NaCl, 0.005% TWEEN-20); angiopoietin-4 reference cell subtracted; global 1:1 Langmuir fit; χ2-to-Rmax > 1.0 or negative association curves taken as no true interaction
# Target sequence in this assay (P16234 24-1089): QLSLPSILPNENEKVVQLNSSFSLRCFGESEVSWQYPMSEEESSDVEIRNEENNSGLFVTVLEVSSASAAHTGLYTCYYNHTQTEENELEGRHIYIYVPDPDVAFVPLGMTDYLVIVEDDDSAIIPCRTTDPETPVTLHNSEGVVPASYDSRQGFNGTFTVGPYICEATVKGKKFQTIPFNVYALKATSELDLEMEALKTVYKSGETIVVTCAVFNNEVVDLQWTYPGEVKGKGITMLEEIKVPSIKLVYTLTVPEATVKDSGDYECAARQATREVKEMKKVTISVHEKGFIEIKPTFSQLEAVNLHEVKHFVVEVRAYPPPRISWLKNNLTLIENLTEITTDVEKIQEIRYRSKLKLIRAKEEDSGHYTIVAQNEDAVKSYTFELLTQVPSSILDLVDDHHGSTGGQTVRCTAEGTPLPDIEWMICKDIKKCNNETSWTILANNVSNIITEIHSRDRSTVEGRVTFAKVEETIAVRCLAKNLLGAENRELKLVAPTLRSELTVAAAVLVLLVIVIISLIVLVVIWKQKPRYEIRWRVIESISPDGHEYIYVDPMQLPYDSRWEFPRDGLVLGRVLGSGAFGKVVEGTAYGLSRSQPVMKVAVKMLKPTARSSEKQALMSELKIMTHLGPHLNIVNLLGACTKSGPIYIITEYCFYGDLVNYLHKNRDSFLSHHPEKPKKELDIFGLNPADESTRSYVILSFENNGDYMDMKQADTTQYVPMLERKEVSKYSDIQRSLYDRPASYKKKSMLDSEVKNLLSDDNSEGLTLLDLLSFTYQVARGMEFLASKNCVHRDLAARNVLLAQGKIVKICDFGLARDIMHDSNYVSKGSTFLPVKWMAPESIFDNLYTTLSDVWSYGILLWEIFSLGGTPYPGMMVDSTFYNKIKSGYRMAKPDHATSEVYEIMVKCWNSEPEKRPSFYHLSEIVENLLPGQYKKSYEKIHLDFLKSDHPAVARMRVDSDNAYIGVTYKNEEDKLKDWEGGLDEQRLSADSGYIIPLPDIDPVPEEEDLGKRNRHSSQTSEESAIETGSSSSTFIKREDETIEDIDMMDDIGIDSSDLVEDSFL
# [6] = target: human recombinant PDGFRβ (human) (UniProt P09619); experiment: as above
# Chain of human recombinant PDGFRβ (human) (P09619 33-1106): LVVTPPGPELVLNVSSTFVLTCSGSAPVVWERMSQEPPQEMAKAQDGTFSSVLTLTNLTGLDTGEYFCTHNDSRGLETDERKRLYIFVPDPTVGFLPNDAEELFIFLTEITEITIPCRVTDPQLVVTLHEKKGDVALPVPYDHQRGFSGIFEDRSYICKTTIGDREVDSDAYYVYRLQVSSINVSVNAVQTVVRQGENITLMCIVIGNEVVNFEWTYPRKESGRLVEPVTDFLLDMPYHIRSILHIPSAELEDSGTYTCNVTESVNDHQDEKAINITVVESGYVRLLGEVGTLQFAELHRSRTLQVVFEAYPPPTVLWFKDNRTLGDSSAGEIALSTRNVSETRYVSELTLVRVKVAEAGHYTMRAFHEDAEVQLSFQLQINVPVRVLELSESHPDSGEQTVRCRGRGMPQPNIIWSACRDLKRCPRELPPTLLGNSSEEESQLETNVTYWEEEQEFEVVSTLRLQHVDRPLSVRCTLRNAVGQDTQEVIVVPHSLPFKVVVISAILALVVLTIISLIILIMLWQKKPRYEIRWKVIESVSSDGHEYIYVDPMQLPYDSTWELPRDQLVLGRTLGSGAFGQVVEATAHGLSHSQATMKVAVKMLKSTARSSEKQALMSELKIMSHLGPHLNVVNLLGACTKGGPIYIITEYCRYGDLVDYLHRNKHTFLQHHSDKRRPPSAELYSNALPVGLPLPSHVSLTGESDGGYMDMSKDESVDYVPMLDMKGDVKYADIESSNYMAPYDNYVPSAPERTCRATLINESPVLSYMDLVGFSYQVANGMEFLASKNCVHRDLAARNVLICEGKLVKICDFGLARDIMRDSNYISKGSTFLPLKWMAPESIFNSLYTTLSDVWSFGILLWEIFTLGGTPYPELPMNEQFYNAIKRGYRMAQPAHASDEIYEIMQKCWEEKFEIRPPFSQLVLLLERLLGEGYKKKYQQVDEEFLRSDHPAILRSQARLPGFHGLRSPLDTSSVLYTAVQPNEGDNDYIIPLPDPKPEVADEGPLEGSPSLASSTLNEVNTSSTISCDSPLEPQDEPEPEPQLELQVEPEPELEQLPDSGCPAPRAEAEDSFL
# VEGFR2 (Homo sapiens) [7] = target: VEGFR2 (Homo sapiens) (UniProt P35968); experiment: as above
# Target sequence in this assay (P35968 20-764): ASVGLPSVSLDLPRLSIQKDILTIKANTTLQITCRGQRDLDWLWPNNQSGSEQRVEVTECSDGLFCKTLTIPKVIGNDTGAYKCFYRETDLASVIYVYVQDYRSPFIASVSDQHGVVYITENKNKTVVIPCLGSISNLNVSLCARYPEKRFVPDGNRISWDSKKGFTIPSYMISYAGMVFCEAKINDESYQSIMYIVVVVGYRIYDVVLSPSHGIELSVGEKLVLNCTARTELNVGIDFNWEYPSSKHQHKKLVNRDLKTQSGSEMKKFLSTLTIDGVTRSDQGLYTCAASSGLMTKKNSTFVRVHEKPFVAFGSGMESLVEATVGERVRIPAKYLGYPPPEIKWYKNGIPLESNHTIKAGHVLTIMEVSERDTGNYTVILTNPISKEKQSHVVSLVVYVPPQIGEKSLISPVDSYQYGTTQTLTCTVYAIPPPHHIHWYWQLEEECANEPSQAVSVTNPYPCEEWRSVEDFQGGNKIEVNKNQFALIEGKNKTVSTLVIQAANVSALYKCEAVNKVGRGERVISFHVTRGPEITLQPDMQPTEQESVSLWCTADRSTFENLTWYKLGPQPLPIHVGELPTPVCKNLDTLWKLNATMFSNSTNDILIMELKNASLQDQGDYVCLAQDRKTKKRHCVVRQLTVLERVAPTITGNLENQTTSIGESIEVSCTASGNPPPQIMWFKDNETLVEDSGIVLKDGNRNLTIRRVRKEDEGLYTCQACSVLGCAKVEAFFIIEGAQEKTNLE
# VEGFR1 (Homo sapiens) [8] = target: VEGFR1 (Homo sapiens) (UniProt P17948); experiment: as above
# Target sequence in this assay (P17948 27-758): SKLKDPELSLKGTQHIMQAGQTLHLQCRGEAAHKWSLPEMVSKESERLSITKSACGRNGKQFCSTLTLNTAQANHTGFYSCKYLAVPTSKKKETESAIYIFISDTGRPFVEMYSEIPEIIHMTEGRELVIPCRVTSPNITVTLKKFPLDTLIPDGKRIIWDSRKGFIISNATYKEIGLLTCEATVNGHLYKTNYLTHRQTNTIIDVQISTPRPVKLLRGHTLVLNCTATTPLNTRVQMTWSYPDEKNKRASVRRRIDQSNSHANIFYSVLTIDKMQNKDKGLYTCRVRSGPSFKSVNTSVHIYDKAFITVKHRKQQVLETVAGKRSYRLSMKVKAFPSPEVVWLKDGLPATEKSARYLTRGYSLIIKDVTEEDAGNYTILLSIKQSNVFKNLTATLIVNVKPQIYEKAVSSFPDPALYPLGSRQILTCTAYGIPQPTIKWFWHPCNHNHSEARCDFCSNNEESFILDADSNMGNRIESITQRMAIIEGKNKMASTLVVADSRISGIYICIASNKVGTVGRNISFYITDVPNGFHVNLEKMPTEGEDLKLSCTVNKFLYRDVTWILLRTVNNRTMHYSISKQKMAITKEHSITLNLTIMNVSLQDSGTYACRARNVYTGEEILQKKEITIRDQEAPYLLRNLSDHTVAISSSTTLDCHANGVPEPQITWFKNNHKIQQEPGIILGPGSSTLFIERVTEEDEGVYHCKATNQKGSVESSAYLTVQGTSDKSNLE
# VEGFR2 (Homo sapiens) [9] = target: VEGFR2 (Homo sapiens) (UniProt P35968); experiment: SPR; BIAcore 3000, 25 °C, CM5 chip; receptor immobilised by amine coupling (~200-500 R.U.); ligand injected at 40, 20 and 10 nM in HBS-EP pH 7.4 (10 mM HEPES, 3 mM EDTA, 150 mM NaCl, 0.005% TWEEN-20); angiopoietin-4 reference cell subtracted; global 1:1 Langmuir fit; χ^2-to-Rmax < 1.0 taken as a true interaction
# Target sequence in this assay (P35968 20-764): as the sequence (P35968 20-764) above
# VEGFR1 (Homo sapiens) [10] = target: VEGFR1 (Homo sapiens) (UniProt P17948); experiment: as above
# Target sequence in this assay (P17948 27-758): as the sequence (P17948 27-758) above
# Chain of VEGF-A (P15692 whole entry): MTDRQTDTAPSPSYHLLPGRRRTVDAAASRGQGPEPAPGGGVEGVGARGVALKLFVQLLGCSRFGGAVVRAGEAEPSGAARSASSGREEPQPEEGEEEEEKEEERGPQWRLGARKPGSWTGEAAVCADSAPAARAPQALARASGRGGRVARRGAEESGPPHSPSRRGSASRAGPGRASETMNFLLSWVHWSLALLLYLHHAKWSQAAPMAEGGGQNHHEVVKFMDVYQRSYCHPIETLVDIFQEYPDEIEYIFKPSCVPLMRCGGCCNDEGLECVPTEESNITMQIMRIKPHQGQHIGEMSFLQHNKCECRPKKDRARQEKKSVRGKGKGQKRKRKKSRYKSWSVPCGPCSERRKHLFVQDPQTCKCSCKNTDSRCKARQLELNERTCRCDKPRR
substance,measurement,setting,value
PDGF-AA (from UniProt P04085),pKd,PDGFRα (Homo sapiens) [1],6.87
PDGF-BB (from UniProt P01127),pKd,PDGFRα (Homo sapiens) [2],6.82
VEGF-A (from UniProt P15692),pKd,VEGFR2 (Homo sapiens) [3],10.28
same,pKd,VEGFR1 (Homo sapiens) [4],11.12
human recombinant PDGF-AA (from UniProt P04085 87-211) (ligand),koff,PDGFRα (Homo sapiens) [5],0.00045 s⁻¹
same,kon,PDGFRα (Homo sapiens) [5],680 M⁻¹ s⁻¹
human recombinant PDGF-AB (from UniProt P04085 87-211; P01127 82-190) (ligand),koff,[6],0.0029 s⁻¹
same,kon,[6],1300 M⁻¹ s⁻¹
same,koff,PDGFRα (Homo sapiens) [5],0.001 s⁻¹
same,kon,PDGFRα (Homo sapiens) [5],1200 M⁻¹ s⁻¹
human recombinant VEGFA (from UniProt P15692 1-395) (ligand),koff,[6],4e-06 s⁻¹
same,kon,[6],12000 M⁻¹ s⁻¹
same,koff,VEGFR2 (Homo sapiens) [7],9.5e-06 s⁻¹
same,kon,VEGFR2 (Homo sapiens) [7],970000 M⁻¹ s⁻¹
same,koff,VEGFR1 (Homo sapiens) [8],4e-07 s⁻¹
same,kon,VEGFR1 (Homo sapiens) [8],400000 M⁻¹ s⁻¹
same,pKd,VEGFR2 (Homo sapiens) [9],11.01
same,kon,VEGFR2 (Homo sapiens) [9],1e+06 M⁻¹ s⁻¹
same,pKd,VEGFR1 (Homo sapiens) [10],12.00
